Literature values as cited in paper PMC10584158.

Biological target: IL-6 (Homo sapiens) (UniProt P05231)
Sequence (P05231 30-212): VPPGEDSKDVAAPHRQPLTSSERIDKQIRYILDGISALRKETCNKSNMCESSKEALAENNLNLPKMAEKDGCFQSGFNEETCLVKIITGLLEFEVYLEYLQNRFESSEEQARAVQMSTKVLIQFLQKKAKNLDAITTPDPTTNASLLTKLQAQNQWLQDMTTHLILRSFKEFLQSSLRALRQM

Kd: 4 pM
Substance: Clazakizumab
